This note sets out measurements from the DeepSol protein solubility set.

The data set in a line: soluble on expression in E. coli; label from the status in PepcDB or PDB records.
As for “VWRTREAVVACIDADPHAEHVLRSAHRLAQQLDCEWHAITIEAPRVAPLPRAGRARLDQALALAETLGAHVETVAGTDMVDAATRYMRRHNITKAVVGRDAWRRRGLSGLL”, the “soluble on expression in E. coli” value is on record as “not soluble”.
On to “WGYECIGMFRSYQEINEYFDKYSITKYLGNTKENVHPGMLIYKDVRGQYDESTGTFGPADGIVDEQDYIKISHRASNPYGGTLNFGFSYKDFSISAQFGASWGAYSLVPTTMRKESYSEYSNVSAMWKDMFVYEDIYDANNIVTVAQNRNAKYPNIRYSSVNGAPSTFWKVSAATVQLRNMTVAYALPKEWLKIIGISSCRFNLTCQNVFNFLNPYPEGAWASWAGSYGYYPNLRKFTLGVNVSF”, for which the “soluble on expression in E. coli” value is “not soluble”.
“WPALDDETLLARLELWLEPYLAGVTSVKGLQSVSVLQALKHYLGWELSQQLDEWLPTHHLLPTGNHKKIRYQLGMEPTLSVRMQEVFGEQSSPRVAKGTRAVVMELLSPAQRPLQVTRDLASFWAGAYKEVQKEMKGRYPKHVWPDDP”: the “soluble on expression in E. coli” value is listed as “not soluble”.
To “YCKTIPMPDLAYSEISVIGKLIRALPEPCALHLANSSTVRYAQLFTVPPQVEICCNRGVNGIEGSLSTAIGYAAASSKLNFIIIGDLSFFYDMNALWNQNYGANIRILLLNNEGGEIFHTLPGMDKSSRSREFITAEHYTTAKGWAEERGFIYMKVTGEEELEEAMQPFTSPETRMQPMLLEVFTDKEKDTTLLREYYHGLKNKNE” belongs “not soluble”; to “YDTAYGGFGRGMKFPMHHALLLLARASMAGDRRALNMLTGTLDHMLFSGVHDLVEGGLHRYSVTRDWRLPHYEKMLYDQAWIIQVLAEAYAASGDRLYLDFAVSTLEFAMSWLWTGRGFASSVDADTGEGEGAYYT”, “not soluble”; to “YESIDLKAVLFDMDGVLFDSMPNHAESWHKIMKRFGFGLSREEAYMHEGRTGASTINIVSRRERGHDATEEEIKAIYQAKTEEFNKCPKAERMPGALEVLTKIKSEGLTPMVVTGSGQTSLLDRLNHNFPGIFQANLMVTAFDVKYGKPNPEPYLMALKKGGFKPNEALVIENAPLGVQAGVAAGIFTIAVNTGPLHDNVLLNEGANLLFHSMPDFNKNWETLQSALKQ”, “not soluble”.
To “YIGLVNSFAQKKKLSVNYEQCEPNSELPQRFICKCKIGQTMYGTGSGVTKQEAKQLAAKEAYQKLLKSPPKTAGT” belongs “soluble”; to “YPDDLVIGNLSRRGFLKGVGATGVLLVAANWGWRDALAAEKKAFGADAMPHGWVDNPKIYVSIDRDGTVGIVCNRSEMGQGVRTSLAMVVADELEADWSRVKVIQAPGDEARYGNQDTDGSRSMRHWFEPMRRCGAAARQMLEQAAANQWKVPLGECRAEQNKVLHAPSGRSLSFGELAEAAAGLEVPARDKLLLKKPEQFRYIGKDVARAIDGADIVNGRAGFGFDARFDDMLYAVVARPPVYGGKLKRYDAAAALKVPGVVKVIEIEGRPIPSEFQPLGGVAVVAQNTWAAIKGREALVVEWDAGVNGGYDSVAYRKQLEEAARKPGKVVRDSGDAAALFAKGGDIVEAEYYLPHLAQAPMEPPVSTAWYKDGACEVWAPTQAPQVTRERIAERLKLPFDKVTVNVTLLGGGFGRKSKPDFVLEAAILAKAFPGRHLRVQWTREDDLHFSYFHTVSVERLQAVLGADGLPQAWLHRSVAPSITALFGPDSKHQGAFELGMGLTNLPFAIPNVRLENPEAPAHTRVGWFRSVSNIPHAFAIQSFVGELAAKAGQDPKDYLLKLLGPARRIDTAELGDSWNYGESPERYPLDVGRLRGVIEEAARQSGWGGELPRGRARGIAAHYSFVTYVAVVIEVEVKDDGALLVHKATIAADCGPQINPERIRSQLEGACVMGLGLAALGEISFKDGKVQQDNFHQYELARMPLAPKAVSVHLLKPDGDLPLGGVGEPGVPPIAPALCNAIFAATGKRIRELPI”, “not soluble”.
For “YQQDQVVKEDNIEAVGKKLHKYNTQFQEKSREYDRLYEEYTRTSQEIQMKRTAIEAFNETIKIFEEQCQTQERYSKEYIEKFKREGNEKEIQRIMHNYDKLKSRISEIIDSRRRLEEDLKKQAAEYREIDKRMNSIKPDLIQLRKTRDQYLMWLTQKGVRQKKLNEWLGN” the value was “soluble”.
Regarding “YTEEELRVLLAESYKSGEIRKSELKYMNNIFTFDKRMAKEIMVPRNEMVSLSLDEDSISNLQETVKQTKYTRYPVVREDKDNVIGVINMKEVLFSMLTKDFSIKKHQIEPFVQPVIHVIETIPIYKLLLKMQKERTHMAILIDEYGGTSGLVTVEDIIEEIVGEIRDEFDADEVPHIRELGKDHYLLNAKLLISDVNSLLGTDLSE”, the “soluble on expression in E. coli” value is on record as “soluble”.
To “YYPKIAEEVYLATLDNGMSLSIIKKKGFIEKAAFLSTNFGALDNRFYIDGKLQTYPAGIAHFLEHKLFEDDQGRDVTLDFVKLGADVNAFTTLDRTTYYFSTIDHFEESLELLLKFTSEFTSSEDTVNHEKRIIEQEINMYQDDPDYRVYLGCLQSLYPNTILGQDIAGSIDSIKKITTKDLKNNFDYFYRPENCHLVLIGNFDIEQIYRFVKETRSEFTISHKTVEK” belongs “not soluble”.
